The results in this text go back to patent CN114478789A (ANHUI ANKE BIOLOGICAL ENG GROUP CO LTD, dated 2022).

In one test the target is T1, 鼠源OX40 (mouse, UniProt P47741 20-211, limits assumed).
T1 construct: also called 鼠源OX40抗原
T1 sequence (looked up): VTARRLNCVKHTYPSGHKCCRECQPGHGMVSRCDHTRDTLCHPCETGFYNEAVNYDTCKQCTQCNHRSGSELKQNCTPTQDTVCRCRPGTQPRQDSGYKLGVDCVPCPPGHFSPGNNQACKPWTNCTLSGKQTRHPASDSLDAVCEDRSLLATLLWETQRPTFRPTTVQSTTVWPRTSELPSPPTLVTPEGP
In words: ELISA, mouse OX40 coated. For orientation: In an ELISA, binding on a coated surface is turned into a signal by an enzyme label.

The next test addresses T2, rhOX40-Avi-His (human, UniProt P43489 29-214, limits assumed).
T2 construct: also called OX40抗原; 人源OX40
T2 sequence (looked up): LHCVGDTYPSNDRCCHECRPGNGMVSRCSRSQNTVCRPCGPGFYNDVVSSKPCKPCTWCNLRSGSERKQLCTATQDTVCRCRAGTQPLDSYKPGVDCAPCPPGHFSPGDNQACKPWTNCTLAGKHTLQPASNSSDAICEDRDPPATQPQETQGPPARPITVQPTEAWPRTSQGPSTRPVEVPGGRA
The test is described as follows: ELISA, human OX40 coated.

B1: L52-2D7H232 (bispecific antibody, human IgG1, kappa)
light: DIQMTQSPSTLSASVGDRVTITCQSSQNVYSNNRLSWYQQKPGKAPKLLIYWTSFLASGVPSRFSGSGSGTEFTLTISSLQPDDFATYYCAGGYSGNLYTFGQGTKLEIKRTVAAPSVFIFPPSDEQLKSGTASVVCLLNNFYPREAKVQWKVDNALQSGNSQESVTEQDSKDSTYSLSSTLTLSKADYEKHKVYACEVTHQGLSSPVTKSFNRGEC
heavy: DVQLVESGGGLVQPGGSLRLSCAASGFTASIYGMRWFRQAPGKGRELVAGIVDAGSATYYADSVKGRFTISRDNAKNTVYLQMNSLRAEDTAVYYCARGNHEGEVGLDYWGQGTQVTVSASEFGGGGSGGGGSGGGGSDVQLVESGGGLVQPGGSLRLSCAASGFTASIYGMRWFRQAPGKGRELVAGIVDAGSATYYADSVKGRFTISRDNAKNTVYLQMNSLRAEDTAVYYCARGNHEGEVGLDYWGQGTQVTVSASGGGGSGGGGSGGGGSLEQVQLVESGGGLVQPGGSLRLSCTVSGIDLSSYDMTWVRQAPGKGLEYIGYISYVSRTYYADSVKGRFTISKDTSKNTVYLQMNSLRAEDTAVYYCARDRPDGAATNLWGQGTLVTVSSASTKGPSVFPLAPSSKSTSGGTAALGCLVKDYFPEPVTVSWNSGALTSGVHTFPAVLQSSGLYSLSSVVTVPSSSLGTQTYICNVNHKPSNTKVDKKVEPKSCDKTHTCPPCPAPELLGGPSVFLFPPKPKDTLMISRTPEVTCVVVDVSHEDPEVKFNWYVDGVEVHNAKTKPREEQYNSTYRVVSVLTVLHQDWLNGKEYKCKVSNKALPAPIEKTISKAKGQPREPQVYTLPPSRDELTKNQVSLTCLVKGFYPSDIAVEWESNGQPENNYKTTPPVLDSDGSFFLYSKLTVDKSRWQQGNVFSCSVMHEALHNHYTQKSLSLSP
notes: Symmetric bispecific: two tandem anti-OX40 nanobodies D7 joined to the heavy chain of the anti-PD-L1 IgG1 L52H232; also called 抗PD-L1与OX40双特异性抗体; 优选抗体L52-2D7H232
For the molecule B1, the figures for the binding result with 鼠源OX40 and with rhOX40-Avi-His were “no binding” and “binds”, respectively.

B2: L52H232-D7 (bispecific antibody, human IgG1, kappa, N297A)
light: DIQMTQSPSTLSASVGDRVTITCQSSQNVYSNNRLSWYQQKPGKAPKLLIYWTSFLASGVPSRFSGSGSGTEFTLTISSLQPDDFATYYCAGGYSGNLYTFGQGTKLEIKRTVAAPSVFIFPPSDEQLKSGTASVVCLLNNFYPREAKVQWKVDNALQSGNSQESVTEQDSKDSTYSLSSTLTLSKADYEKHKVYACEVTHQGLSSPVTKSFNRGEC
heavy: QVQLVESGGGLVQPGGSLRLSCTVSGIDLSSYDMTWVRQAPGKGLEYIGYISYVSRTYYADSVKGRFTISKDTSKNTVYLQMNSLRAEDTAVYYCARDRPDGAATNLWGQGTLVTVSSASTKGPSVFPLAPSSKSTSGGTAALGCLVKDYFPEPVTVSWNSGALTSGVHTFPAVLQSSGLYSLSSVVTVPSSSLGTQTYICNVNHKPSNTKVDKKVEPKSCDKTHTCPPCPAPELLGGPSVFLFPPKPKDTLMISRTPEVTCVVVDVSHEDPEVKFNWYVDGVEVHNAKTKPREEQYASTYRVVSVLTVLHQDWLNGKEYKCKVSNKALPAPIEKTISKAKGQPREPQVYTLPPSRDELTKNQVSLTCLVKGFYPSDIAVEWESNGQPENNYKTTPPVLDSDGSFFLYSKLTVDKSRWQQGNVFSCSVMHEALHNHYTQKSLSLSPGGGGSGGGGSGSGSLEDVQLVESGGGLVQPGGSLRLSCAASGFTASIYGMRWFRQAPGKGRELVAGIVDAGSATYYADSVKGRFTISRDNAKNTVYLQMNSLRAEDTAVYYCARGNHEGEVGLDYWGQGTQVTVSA
notes: Symmetric bispecific: anti-OX40 nanobody D7 joined to the heavy chain of the anti-PD-L1 IgG1 L52H232; also called 抗PD-L1与OX40双特异性抗体
As to B2, the binding result in the test with 鼠源OX40 is “no binding”; with rhOX40-Avi-His, “binds”.

B3: L52H232-2D7 (bispecific antibody, human IgG1, kappa, N297A)
light: DIQMTQSPSTLSASVGDRVTITCQSSQNVYSNNRLSWYQQKPGKAPKLLIYWTSFLASGVPSRFSGSGSGTEFTLTISSLQPDDFATYYCAGGYSGNLYTFGQGTKLEIKRTVAAPSVFIFPPSDEQLKSGTASVVCLLNNFYPREAKVQWKVDNALQSGNSQESVTEQDSKDSTYSLSSTLTLSKADYEKHKVYACEVTHQGLSSPVTKSFNRGEC
heavy: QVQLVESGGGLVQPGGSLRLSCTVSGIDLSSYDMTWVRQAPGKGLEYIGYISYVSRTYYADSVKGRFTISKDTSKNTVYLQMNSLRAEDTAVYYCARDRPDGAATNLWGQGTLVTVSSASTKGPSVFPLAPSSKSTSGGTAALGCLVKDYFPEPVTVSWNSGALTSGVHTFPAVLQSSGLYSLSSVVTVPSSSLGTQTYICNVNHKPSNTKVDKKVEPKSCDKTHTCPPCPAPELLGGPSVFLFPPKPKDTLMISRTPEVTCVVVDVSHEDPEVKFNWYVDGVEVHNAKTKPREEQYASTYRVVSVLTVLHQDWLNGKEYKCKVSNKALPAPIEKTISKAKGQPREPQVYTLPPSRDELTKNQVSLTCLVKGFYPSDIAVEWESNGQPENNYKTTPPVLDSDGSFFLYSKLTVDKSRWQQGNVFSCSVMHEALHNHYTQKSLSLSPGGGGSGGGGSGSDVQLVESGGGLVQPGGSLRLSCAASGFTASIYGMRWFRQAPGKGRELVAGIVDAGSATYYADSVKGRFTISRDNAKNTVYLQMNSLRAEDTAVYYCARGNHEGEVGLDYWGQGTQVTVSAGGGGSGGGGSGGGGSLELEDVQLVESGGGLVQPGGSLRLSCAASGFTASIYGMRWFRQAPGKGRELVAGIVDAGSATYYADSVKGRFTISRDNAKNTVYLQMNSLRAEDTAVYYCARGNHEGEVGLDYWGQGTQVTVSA
notes: to be rechecked; also called 抗PD-L1与OX40双特异性抗体
Turning to B3, the figures for the binding result with 鼠源OX40 and with rhOX40-Avi-His were “no binding” and “binds”, respectively.

B4: L52-D7H232 (bispecific antibody, human IgG1, kappa, N297A)
light: DIQMTQSPSTLSASVGDRVTITCQSSQNVYSNNRLSWYQQKPGKAPKLLIYWTSFLASGVPSRFSGSGSGTEFTLTISSLQPDDFATYYCAGGYSGNLYTFGQGTKLEIKRTVAAPSVFIFPPSDEQLKSGTASVVCLLNNFYPREAKVQWKVDNALQSGNSQESVTEQDSKDSTYSLSSTLTLSKADYEKHKVYACEVTHQGLSSPVTKSFNRGEC
heavy: DVQLVESGGGLVQPGGSLRLSCAASGFTASIYGMRWFRQAPGKGRELVAGIVDAGSATYYADSVKGRFTISRDNAKNTVYLQMNSLRAEDTAVYYCARGNHEGEVGLDYWGQGTQVTVSASEFGGGGSGGGGSGGGGSLEQVQLVESGGGLVQPGGSLRLSCTVSGIDLSSYDMTWVRQAPGKGLEYIGYISYVSRTYYADSVKGRFTISKDTSKNTVYLQMNSLRAEDTAVYYCARDRPDGAATNLWGQGTLVTVSSASTKGPSVFPLAPSSKSTSGGTAALGCLVKDYFPEPVTVSWNSGALTSGVHTFPAVLQSSGLYSLSSVVTVPSSSLGTQTYICNVNHKPSNTKVDKKVEPKSCDKTHTCPPCPAPEDEGGPSVFLFPPKPKDTLMISRTPEVTCVVVDVSHEDPEVKFNWYVDGVEVHNAKTKPREEQYASTYRVVSVLTVLHQDWLNGKEYKCKVSNKALPAPIEKTISKAKGQPREPQVYTLPPCRDELTKNQVSLWCLVKGFYPSDIAVEWESNGQPENNYKTTPPVLDSDGSFFLYSKLTVDKSRWQQGNVFSCSVMHEALHNHYTQKSLSLSP
notes: Symmetric bispecific: anti-OX40 nanobody D7 joined to the heavy chain of the anti-PD-L1 IgG1 L52H232; also called 抗PD-L1与OX40双特异性抗体; 优选抗体L52-D7H232
As for B4, the binding result in the test with 鼠源OX40 is on record as “no binding”.
